According to publication PMC11831459, “Lactylation of Histone H3k18 and Egr1 Promotes Endothelial Glycocalyx Degradation in Sepsis‐Induced Acute Lung Injury” (Advanced Science, 2024):

Molecular target: T1, His-EGR1 (mouse, UniProt P08046 1-533)
T1 construct: Early growth response protein 1 (EGR1), mouse; plasmid pET28a-EGR1; also called His-tagged EGR1; source: E. coli BL21(DE3), purified (Ni-NTA)
Assay: pull-down; GST pull-down with affinity purified proteins; GST bait on GSH magnetic beads (BersinBio GST-pull down kit), His-EGR1 as prey; SDS-PAGE or Western blot
Conditions: both partners purified

T1 sequence (P08046 whole entry): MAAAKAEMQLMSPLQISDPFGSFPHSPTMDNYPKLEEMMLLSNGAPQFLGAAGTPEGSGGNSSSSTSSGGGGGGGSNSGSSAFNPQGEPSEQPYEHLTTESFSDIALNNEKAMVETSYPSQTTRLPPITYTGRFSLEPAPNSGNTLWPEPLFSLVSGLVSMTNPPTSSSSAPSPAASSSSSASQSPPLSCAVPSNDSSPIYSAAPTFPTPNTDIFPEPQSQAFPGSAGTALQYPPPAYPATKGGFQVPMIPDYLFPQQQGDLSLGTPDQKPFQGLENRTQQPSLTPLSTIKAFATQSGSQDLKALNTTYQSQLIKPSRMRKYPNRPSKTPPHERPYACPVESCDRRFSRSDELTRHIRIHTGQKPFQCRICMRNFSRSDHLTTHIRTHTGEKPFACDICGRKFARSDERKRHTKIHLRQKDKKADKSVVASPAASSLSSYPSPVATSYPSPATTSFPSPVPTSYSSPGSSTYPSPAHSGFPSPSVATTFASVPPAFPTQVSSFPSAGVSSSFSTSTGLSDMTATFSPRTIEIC

- binding result: binds
B1: GST-KAT2B-WT (enzyme, mouse, UniProt Q9JHD1 1-813, looked up)
chain: MAEAGGAGSPALPPAPPHGSPRTLATAAGSSASCGPATAVAAAGTAEGPGGGGSARIAVKKAQLRSAPRAKKLEKLGVYSACKAEESCKCNGWKNPNPSPTPPRGDLQQIIVSLTESCRSCSHALAAHVSHLENVSEEEMDRLLGIVLDVEYLFTCVHKEEDADTKQVYFYLFKLLRKSILQRGKPVVEGSLEKKPPFEKPSIEQGVNNFVQYKFSHLPSKERQTTIELAKMFLNRINYWHLEAPSQRRLRSPNDDISGYKENYTRWLCYCNVPQFCDSLPRYETTKVFGRTLLRSVFTIMRRQLLEQARQEKDKLPLEKRTLILTHFPKFLSMLEEEVYSQNSPIWDQDFLSASSRTSPLGIQTVISPPVTGTALFSSNSTSHEQINGGRTSPGCRGSSGLEANPGEKRKMNNSHAPEEAKRSRVMGDIPVELINEVMSTITDPAGMLGPETNFLSAHSARDEAARLEERRGVIEFHVVGNSLNQKPNKKILMWLVGLQNVFSHQLPRMPKEYITRLVFDPKHKTLALIKDGRVIGGICFRMFPSQGFTEIVFCAVTSNEQVKGYGTHLMNHLKEYHIKHEILNFLTYADEYAIGYFKKQGFSKEIKIPKTKYVGYIKDYEGATLMGCELNPQIPYTEFSVIIKKQKEIIKKLIERKQAQIRKVYPGLSCFKDGVRQIPIESIPGIRETGWKPSGKEKSKEPKDPEQLYSTLKNILQQVKNHPNAWPFMEPVKRTEAPGYYEVIRFPMDLKTMSERLRNRYYVSKKLFMADLQRVFTNCKEYNPPESEYYKCASILEKFFFSKIKEAGLIDK
notes: Histone acetyltransferase KAT2B, mouse; plasmid pGEX-4T-1-KAT2B; source: E. coli BL21(DE3), purified (glutathione column)
